# Source: patent US20250313634A1 (WUXI BIOLOGICS SHANGHAI, published 2025)
# B1: 1.14.4 (antibody, V domains shown)
# VH: EVQLLESGGGLVQPGGSLRLSCAASGFTFSSYAMSWVRQAPGKGLEWVSGISGSGGFTYYADSVKGRFTISRDNSKNTLYLQMNSLRAEDTAVYYCAKPPRGYNYGPFDYWGQGTLVTVSS
# VL: SYVLTQPPSVSVAPGQTARITCGGNNIGSKSVHWYQQKPGQAPVLVVYDDSDRPSGIPERFSGSNSGNTATLTISRVEAGDEADYYCQVWDSSSDHVVFGGGTKLTVL
# notes: Fully human monoclonal antibody with a human constant region of IgG4 isotype
# How the values were obtained:
# Assay in all cases: capture ELISA on coated 1.14.4; relative to silent alanine substitutions
# [1] = molecular target: T1, hPD-L1_ECD.His point mutant T181A (human, UniProt Q9NZQ7 19-238)
# T1 construct: extracellular domain
# Procedure, shortened: (§1)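 Capture ELISA in which supernatant containing quantified PD-L1 alanine mutant was detected with HRP anti-His antibody. Absorbance was normalized to the average of control mutants. Epitope residues were called at binding fold change <0.55.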
# [2] = molecular target: T2, hPD-L1_ECD.His point mutant L27A (human, UniProt Q9NZQ7 19-238)
# T2 construct: extracellular domain
# Procedure, shortened: as §1
# [3] = molecular target: T3, hPD-L1_ECD.His point mutant K162A (human, UniProt Q9NZQ7 19-238)
# T3 construct: extracellular domain
# Procedure, shortened: as §1
# [4] = molecular target: T4, hPD-L1_ECD.His point mutant Q77A (human, UniProt Q9NZQ7 19-238)
# T4 construct: extracellular domain
# Procedure, shortened: as §1
# [5] = molecular target: T5, hPD-L1_ECD.His point mutant V143A (human, UniProt Q9NZQ7 19-238)
# T5 construct: extracellular domain
# Procedure, shortened: as §1
# [6] = molecular target: T6, hPD-L1_ECD.His point mutant V147A (human, UniProt Q9NZQ7 19-238)
# T6 construct: extracellular domain
# Procedure, shortened: as §1
# [7] = molecular target: T7, hPD-L1_ECD.His point mutant M36A (human, UniProt Q9NZQ7 19-238)
# T7 construct: extracellular domain
# Procedure, shortened: as §1
# [8] = molecular target: T8, hPD-L1_ECD.His point mutant L142A (human, UniProt Q9NZQ7 19-238)
# T8 construct: extracellular domain
# Procedure, shortened: as §1
# [9] = molecular target: T9, hPD-L1_ECD.His point mutant S93A (human, UniProt Q9NZQ7 19-238)
# T9 construct: extracellular domain
# Procedure, shortened: as §1
# [10] = molecular target: T10, hPD-L1_ECD.His point mutant K62A (human, UniProt Q9NZQ7 19-238)
# T10 construct: extracellular domain
# Procedure, shortened: as §1
# [11] = molecular target: T11, hPD-L1_ECD.His point mutant N63A (human, UniProt Q9NZQ7 19-238)
# T11 construct: extracellular domain
# Procedure, shortened: as §1
# [12] = molecular target: T12, hPD-L1_ECD.His point mutant E60A (human, UniProt Q9NZQ7 19-238)
# T12 construct: extracellular domain
# Procedure, shortened: as §1
# [13] = molecular target: T13, hPD-L1_ECD.His point mutant T37A (human, UniProt Q9NZQ7 19-238)
# T13 construct: extracellular domain
# Procedure, shortened: as §1
# [14] = molecular target: T14, hPD-L1_ECD.His point mutant L50A (human, UniProt Q9NZQ7 19-238)
# T14 construct: extracellular domain
# Procedure, shortened: as §1
# [15] = molecular target: T15, hPD-L1_ECD.His point mutant V111A (human, UniProt Q9NZQ7 19-238)
# T15 construct: extracellular domain
# Procedure, shortened: as §1
# [16] = molecular target: T16, hPD-L1_ECD.His point mutant E218A (human, UniProt Q9NZQ7 19-238)
# T16 construct: extracellular domain
# Procedure, shortened: as §1
# [17] = molecular target: T17, hPD-L1_ECD.His point mutant F19A (human, UniProt Q9NZQ7 19-238)
# T17 construct: extracellular domain
# Procedure, shortened: as §1
# [18] = molecular target: T18, hPD-L1_ECD.His point mutant N35A (human, UniProt Q9NZQ7 19-238)
# T18 construct: extracellular domain
# Procedure, shortened: as §1
# [19] = molecular target: T19, hPD-L1_ECD.His point mutant E205A (human, UniProt Q9NZQ7 19-238)
# T19 construct: extracellular domain
# Procedure, shortened: as §1
# [20] = molecular target: T20, hPD-L1_ECD.His point mutant P43A (human, UniProt Q9NZQ7 19-238)
# T20 construct: extracellular domain
# Procedure, shortened: as §1
# [21] = molecular target: T21, hPD-L1_ECD.His point mutant T154A (human, UniProt Q9NZQ7 19-238)
# T21 construct: extracellular domain
# Procedure, shortened: as §1
# [22] = molecular target: T22, hPD-L1_ECD.His point mutant T179A (human, UniProt Q9NZQ7 19-238)
# T22 construct: extracellular domain
# Procedure, shortened: as §1
# [23] = molecular target: T23, hPD-L1_ECD.His point mutant T196A (human, UniProt Q9NZQ7 19-238)
# T23 construct: extracellular domain
# Procedure, shortened: as §1
# [24] = molecular target: T24, hPD-L1_ECD.His point mutant Q91A (human, UniProt Q9NZQ7 19-238)
# T24 construct: extracellular domain
# Procedure, shortened: as §1
# [25] = molecular target: T25, hPD-L1_ECD.His point mutant Y32A (human, UniProt Q9NZQ7 19-238)
# T25 construct: extracellular domain
# Procedure, shortened: as §1
# [26] = molecular target: T26, hPD-L1_ECD.His point mutant S117A (human, UniProt Q9NZQ7 19-238)
# T26 construct: extracellular domain
# Procedure, shortened: as §1
# T9 sequence (Q9NZQ7 19-238 S93A): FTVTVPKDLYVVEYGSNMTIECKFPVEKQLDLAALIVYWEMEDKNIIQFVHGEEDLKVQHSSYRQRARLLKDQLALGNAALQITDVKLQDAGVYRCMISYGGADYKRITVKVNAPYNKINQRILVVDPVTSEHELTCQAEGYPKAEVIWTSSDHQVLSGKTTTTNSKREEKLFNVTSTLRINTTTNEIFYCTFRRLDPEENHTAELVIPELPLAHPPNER
# T6 sequence (Q9NZQ7 19-238 V147A): as the sequence (Q9NZQ7 19-238 S93A) above, with A75S, V129A counted along it
# T15 sequence (Q9NZQ7 19-238 V111A): as the sequence (Q9NZQ7 19-238 S93A) above, with A75S, V93A counted along it
# T16 sequence (Q9NZQ7 19-238 E218A): as the sequence (Q9NZQ7 19-238 S93A) above, with A75S, E200A counted along it
# T17 sequence (Q9NZQ7 19-238 F19A): as the sequence (Q9NZQ7 19-238 S93A) above, with F1A, A75S counted along it
# T25 sequence (Q9NZQ7 19-238 Y32A): as the sequence (Q9NZQ7 19-238 S93A) above, with Y14A, A75S counted along it
# T13 sequence (Q9NZQ7 19-238 T37A): as the sequence (Q9NZQ7 19-238 S93A) above, with T19A, A75S counted along it
# T5 sequence (Q9NZQ7 19-238 V143A): as the sequence (Q9NZQ7 19-238 S93A) above, with A75S, V125A counted along it
# T23 sequence (Q9NZQ7 19-238 T196A): as the sequence (Q9NZQ7 19-238 S93A) above, with A75S, T178A counted along it
# T8 sequence (Q9NZQ7 19-238 L142A): as the sequence (Q9NZQ7 19-238 S93A) above, with A75S, L124A counted along it
# T26 sequence (Q9NZQ7 19-238 S117A): as the sequence (Q9NZQ7 19-238 S93A) above, with A75S, S99A counted along it
# T21 sequence (Q9NZQ7 19-238 T154A): as the sequence (Q9NZQ7 19-238 S93A) above, with A75S, T136A counted along it
# T18 sequence (Q9NZQ7 19-238 N35A): as the sequence (Q9NZQ7 19-238 S93A) above, with N17A, A75S counted along it
# T7 sequence (Q9NZQ7 19-238 M36A): as the sequence (Q9NZQ7 19-238 S93A) above, with M18A, A75S counted along it
# T2 sequence (Q9NZQ7 19-238 L27A): as the sequence (Q9NZQ7 19-238 S93A) above, with L9A, A75S counted along it
# T11 sequence (Q9NZQ7 19-238 N63A): as the sequence (Q9NZQ7 19-238 S93A) above, with N45A, A75S counted along it
# T10 sequence (Q9NZQ7 19-238 K62A): as the sequence (Q9NZQ7 19-238 S93A) above, with K44A, A75S counted along it
# T22 sequence (Q9NZQ7 19-238 T179A): as the sequence (Q9NZQ7 19-238 S93A) above, with A75S, T161A counted along it
# T12 sequence (Q9NZQ7 19-238 E60A): as the sequence (Q9NZQ7 19-238 S93A) above, with E42A, A75S counted along it
# T20 sequence (Q9NZQ7 19-238 P43A): as the sequence (Q9NZQ7 19-238 S93A) above, with P25A, A75S counted along it
# T14 sequence (Q9NZQ7 19-238 L50A): as the sequence (Q9NZQ7 19-238 S93A) above, with L32A, A75S counted along it
# T4 sequence (Q9NZQ7 19-238 Q77A): as the sequence (Q9NZQ7 19-238 S93A) above, with Q59A, A75S counted along it
# T1 sequence (Q9NZQ7 19-238 T181A): as the sequence (Q9NZQ7 19-238 S93A) above, with A75S, T163A counted along it
# T24 sequence (Q9NZQ7 19-238 Q91A): as the sequence (Q9NZQ7 19-238 S93A) above, with Q73A, A75S counted along it
# T19 sequence (Q9NZQ7 19-238 E205A): as the sequence (Q9NZQ7 19-238 S93A) above, with A75S, E187A counted along it
# T3 sequence (Q9NZQ7 19-238 K162A): as the sequence (Q9NZQ7 19-238 S93A) above, with A75S, K144A counted along it
binder,measurement,setting,value
B1,fold change,[1],0.947 fold
same,fold change,[2],0.949 fold
same,fold change,[3],0.99 fold
same,fold change,[4],1.01 fold
same,fold change,[5],1.02 fold
same,fold change,[6],1.02 fold
same,fold change,[7],1.04 fold
same,fold change,[8],1.05 fold
same,fold change,[9],1.15 fold
same,fold change,[10],0.169 fold
same,fold change,[11],0.285 fold
same,fold change,[12],0.547 fold
same,fold change,[13],0.569 fold
same,fold change,[14],0.614 fold
same,fold change,[15],0.723 fold
same,fold change,[16],0.732 fold
same,fold change,[17],0.78 fold
same,fold change,[18],0.788 fold
same,fold change,[19],0.801 fold
same,fold change,[20],0.834 fold
same,fold change,[21],0.888 fold
same,fold change,[22],0.893 fold
same,fold change,[23],0.898 fold
same,fold change,[24],0.906 fold
same,fold change,[25],0.935 fold
same,fold change,[26],0.935 fold
